According to paper doi:10.1101/2023.03.13.532366:

Biological target: biotinylated mIL-12 (mIL-12a-AviTag-His6 and untagged mIL-12b) (mouse) (UniProt P43431)
Test: BLI

mIL-12Rβ1_(D1-D2) (from mIL-12Rβ1_(D1-D2)-CASP3-AviTag-His6), analyte in BLI (domain or fragment), sequence (Q60837 20-738): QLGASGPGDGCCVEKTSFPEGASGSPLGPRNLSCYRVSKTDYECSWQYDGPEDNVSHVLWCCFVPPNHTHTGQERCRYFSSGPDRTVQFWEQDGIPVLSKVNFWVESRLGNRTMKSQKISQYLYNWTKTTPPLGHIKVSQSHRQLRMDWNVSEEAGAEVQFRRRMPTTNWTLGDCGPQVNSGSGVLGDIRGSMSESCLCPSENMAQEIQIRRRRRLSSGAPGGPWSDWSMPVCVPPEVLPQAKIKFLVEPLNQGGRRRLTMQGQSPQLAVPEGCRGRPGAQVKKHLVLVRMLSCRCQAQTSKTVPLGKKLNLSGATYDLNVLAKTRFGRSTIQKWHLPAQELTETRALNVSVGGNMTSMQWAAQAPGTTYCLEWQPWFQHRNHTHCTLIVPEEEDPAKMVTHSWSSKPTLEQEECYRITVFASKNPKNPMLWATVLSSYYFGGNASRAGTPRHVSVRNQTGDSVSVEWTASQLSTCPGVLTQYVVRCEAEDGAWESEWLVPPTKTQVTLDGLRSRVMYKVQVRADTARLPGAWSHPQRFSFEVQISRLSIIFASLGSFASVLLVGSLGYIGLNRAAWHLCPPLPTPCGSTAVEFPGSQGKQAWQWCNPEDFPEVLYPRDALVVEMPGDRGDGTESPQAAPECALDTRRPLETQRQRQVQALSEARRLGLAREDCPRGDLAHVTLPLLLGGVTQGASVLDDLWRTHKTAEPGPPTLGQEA
biotinylated mIL-12 (mIL-12a-AviTag-His6 and untagged mIL-12b) (mouse), sequence (P43431 23-215, chain 1 of 2): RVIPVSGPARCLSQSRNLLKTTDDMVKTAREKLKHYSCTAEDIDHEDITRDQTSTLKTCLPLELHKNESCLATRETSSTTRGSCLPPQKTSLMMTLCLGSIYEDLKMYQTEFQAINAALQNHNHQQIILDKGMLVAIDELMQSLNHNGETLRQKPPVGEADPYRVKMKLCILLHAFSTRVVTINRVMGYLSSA
biotinylated mIL-12 (mIL-12a-AviTag-His6 and untagged mIL-12b) (mouse), sequence (P43432 23-335, chain 2 of 2, further chain): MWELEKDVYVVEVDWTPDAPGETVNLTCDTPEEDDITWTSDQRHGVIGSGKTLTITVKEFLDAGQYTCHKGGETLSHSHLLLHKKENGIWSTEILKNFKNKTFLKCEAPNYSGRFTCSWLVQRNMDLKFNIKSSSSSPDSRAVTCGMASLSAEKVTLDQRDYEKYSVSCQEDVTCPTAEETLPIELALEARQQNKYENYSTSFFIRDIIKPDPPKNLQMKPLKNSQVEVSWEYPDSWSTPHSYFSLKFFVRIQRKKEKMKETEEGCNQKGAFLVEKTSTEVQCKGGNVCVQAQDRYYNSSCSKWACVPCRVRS

mIL-12Rβ1_(D1-D2) (from mIL-12Rβ1_(D1-D2)-CASP3-AviTag-His6), analyte in BLI (domain or fragment)
fold higher affinity than the human counterparts (hIL-12 for hIL-12Rβ1): 10 fold
